Results on 1 substance are retold here after patent US20210230280A1.

In this assay the target is FGFR4 (human) (UniProt P22455). As to the kind of experiment: ELISA; also printed 0.001 ug/mL. On the technique in general: An ELISA detects its analyte on a solid surface through an enzyme-linked reagent.
FGFR4 (human), sequence (P22455 22-369): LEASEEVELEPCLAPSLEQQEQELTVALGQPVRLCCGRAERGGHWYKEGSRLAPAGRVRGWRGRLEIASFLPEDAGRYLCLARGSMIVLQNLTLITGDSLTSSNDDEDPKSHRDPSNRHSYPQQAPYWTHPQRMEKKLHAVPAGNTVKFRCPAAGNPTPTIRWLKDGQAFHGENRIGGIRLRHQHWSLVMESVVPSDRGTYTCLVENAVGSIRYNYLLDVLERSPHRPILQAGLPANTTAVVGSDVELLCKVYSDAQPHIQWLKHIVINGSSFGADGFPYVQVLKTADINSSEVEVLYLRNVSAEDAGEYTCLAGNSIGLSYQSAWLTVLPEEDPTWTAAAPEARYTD

ab41948 had a Kd of 0.07 nM.

A word on the Kd: it is the equilibrium constant for the complex coming apart. The low end stands for tighter binding, the high end for weaker binding.
